Laboratory results taken from paper PMC9433702, “Functional characterization of a catalytically promiscuous tryptophan decarboxylase from camptothecin-producing Camptotheca acuminata” (Frontiers in Plant Science, 2022).

Substrate: N[C@@H](Cc1c[nH]c2ccccc12)C(=O)O
Assay: HPLC-DAD quantitation of tryptamine, non-linear regression
Type: biochemical, Camptotheca acuminata
Settings: 4 μM PLP, 0.16 μM enzyme, 50 mM phosphate buffer pH 7.6, 37°C

B1: CaTDC3 (Camptotheca acuminata) (protein)
chain: MGSLDSNYDTESPASVGQFNPLDPEEFRKQAHCIVDFIADYYKNIESYPVLSQVDPGYLHSRLPKNAPYRSEPFESILKDVQKDIIPGMTHWMSPNFFAYFPATVSSAAFVGEMLCTCFNSVGFNWLASPAATELEMVVIDWLANMLKLPKSFMFSGTGGGVLQGTTSEAILCTLIAARDRALEIVGVKNFNKLVVYGSDQTHSTYAKACKLAGILPCNIRSIPTTADSNFSVSPLLLRRAIEADKAAGMVPLYICATVGTTSTTAIDPLSSLADVANDYGVWFHVDAAYAGSACICPEFRHYLDGIERADSLSLSPHKWLLSYLDCCCLWVKSPSLLVKALSTDPEYLKNQPSESKSVVDYKDWQVGTGRRFKALRLWFVMRSYGVANLQSHIRTDVQMAKMFEGFVKSDPRFEILVPRVFSLVCFRLNPISGSDPTGTEALNRKLLDWVNSTGRVYMTHTKVGGIYMLRFAVGATLTEKRHVSSAWKLIKEGADVLLKED
notes: homodimer by homology model
B1 was tested, and the Km was 48 ± 2 µM and the kcat was 25.6 min^–1.
